Experimental data as given in paper PMC2665219 (Nucleic Acids Research, 2009).
Where two headings read alike, the source gives them in different places.

How the values were obtained:
Experiment in all cases: EMSA
EbfC K23A = target: T1, EbfC K23A (Borrelia burgdorferi, UniProt O51418 1-99, K23A)
T1 sequence: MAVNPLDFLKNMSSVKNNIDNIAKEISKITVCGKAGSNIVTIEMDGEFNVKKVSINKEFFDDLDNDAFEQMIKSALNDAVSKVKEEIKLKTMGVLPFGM

EbfC K82A = target: T2, EbfC K82A (Borrelia burgdorferi, UniProt O51418 1-99, K82A)
T2 sequence: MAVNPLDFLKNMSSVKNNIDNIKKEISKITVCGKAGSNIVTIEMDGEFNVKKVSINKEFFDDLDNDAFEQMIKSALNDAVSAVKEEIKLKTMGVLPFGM

EbfC D20A = target: T3, EbfC D20A (Borrelia burgdorferi, UniProt O51418 1-99, D20A)
T3 sequence: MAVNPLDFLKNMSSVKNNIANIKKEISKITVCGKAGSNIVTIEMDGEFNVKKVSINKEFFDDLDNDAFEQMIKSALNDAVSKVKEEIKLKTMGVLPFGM

EbfC N77A = target: T4, EbfC N77A (Borrelia burgdorferi, UniProt O51418 1-99, N77A)
T4 sequence: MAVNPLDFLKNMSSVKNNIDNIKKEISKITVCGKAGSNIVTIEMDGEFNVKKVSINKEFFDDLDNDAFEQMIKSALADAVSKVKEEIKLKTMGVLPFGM

EbfC K16A = target: T5, EbfC K16A (Borrelia burgdorferi, UniProt O51418 1-99, K16A)
T5 sequence: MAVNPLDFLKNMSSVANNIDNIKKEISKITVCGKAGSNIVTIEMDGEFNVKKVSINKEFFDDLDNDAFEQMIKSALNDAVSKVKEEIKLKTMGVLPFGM

EbfC K88A = target: T6, EbfC K88A (Borrelia burgdorferi, UniProt O51418 1-99, K88A)
T6 sequence: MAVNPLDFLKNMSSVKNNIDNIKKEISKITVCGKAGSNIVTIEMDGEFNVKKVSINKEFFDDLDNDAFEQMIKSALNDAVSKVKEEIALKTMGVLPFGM

EbfC D78A = target: T7, EbfC D78A (Borrelia burgdorferi, UniProt O51418 1-99, D78A)
T7 sequence: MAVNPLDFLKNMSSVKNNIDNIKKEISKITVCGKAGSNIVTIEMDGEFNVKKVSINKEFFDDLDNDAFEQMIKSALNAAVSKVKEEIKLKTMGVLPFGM

EbfC K84A = target: T8, EbfC K84A (Borrelia burgdorferi, UniProt O51418 1-99, K84A)
T8 sequence: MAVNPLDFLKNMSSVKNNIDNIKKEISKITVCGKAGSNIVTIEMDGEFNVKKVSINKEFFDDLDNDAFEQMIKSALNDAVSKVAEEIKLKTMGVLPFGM

EbfC E85A = target: T9, EbfC E85A (Borrelia burgdorferi, UniProt O51418 1-99, E85A)
T9 sequence: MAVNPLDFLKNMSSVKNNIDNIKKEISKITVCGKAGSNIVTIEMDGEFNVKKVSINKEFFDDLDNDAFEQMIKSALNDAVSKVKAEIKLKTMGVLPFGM

EbfC [1] = target: T10, EbfC (Borrelia burgdorferi, UniProt O51418 1-99)
T10 sequence: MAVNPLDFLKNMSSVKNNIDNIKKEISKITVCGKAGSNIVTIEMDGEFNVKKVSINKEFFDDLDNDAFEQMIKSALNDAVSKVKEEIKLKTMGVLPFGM

EbfC [2] = target: T10, EbfC; remark: listed apart in the source

B1: b-WT (dsDNA)
DNA 1: TTGTAATGAGTAGTGCATTTGCAATGGAGAGATTTTGGGGAGTTGTTTAAAATTACATTTGCGTTTTGTTAAAATGTAACAGCTGAATGTAACAAAATTATATATTTAAATCTTTGAAATATTGC
DNA 2: GCAATATTTCAAAGATTTAAATATATAATTTTGTTACATTCAGCTGTTACATTTTAACAAAACGCAAATGTAATTTTAAACAACTCCCCAAAATCTCTCCATTGCAAATGCACTACTCATTACAA
- binding result (EbfC K23A): no binding
- binding result (EbfC K82A): no binding
- binding result (EbfC D20A): no binding
- binding result (EbfC N77A): no binding
- binding result (EbfC K16A): no binding
- binding result (EbfC K88A): no binding
- binding result (EbfC D78A): no binding
- binding result (EbfC K84A): no binding
- binding result (EbfC E85A): no binding
- Kd (EbfC [1]): 388 ± 108 nM
- Kd (EbfC [2]): 313 nM
